Tests used:
drUvrDΔC [1] = target: T1, drUvrDΔC (Deinococcus radiodurans, UniProt Q9RTI9 1-665, del666-745); assay: X-ray crystallography (3.0 Å); fluorescein-dT21 DNA; Fluorescence anisotropy: buffer A (composition not in material) + 0.05% Tween 20, 0.1 mg/mL BSA, 1 mM AMPPNP; 2.5 nM DNA, 0-8 µM protein, 80 µl, room temperature; single-site fit; conditions: protein: recombinant; tags: N-terminal His-tag cleaved with TEV (pET151d); chain copies: 2; label: fluorescein (internal dT21); 18 bp duplex, 3' overhang 7 nt at both ends
T1 sequence: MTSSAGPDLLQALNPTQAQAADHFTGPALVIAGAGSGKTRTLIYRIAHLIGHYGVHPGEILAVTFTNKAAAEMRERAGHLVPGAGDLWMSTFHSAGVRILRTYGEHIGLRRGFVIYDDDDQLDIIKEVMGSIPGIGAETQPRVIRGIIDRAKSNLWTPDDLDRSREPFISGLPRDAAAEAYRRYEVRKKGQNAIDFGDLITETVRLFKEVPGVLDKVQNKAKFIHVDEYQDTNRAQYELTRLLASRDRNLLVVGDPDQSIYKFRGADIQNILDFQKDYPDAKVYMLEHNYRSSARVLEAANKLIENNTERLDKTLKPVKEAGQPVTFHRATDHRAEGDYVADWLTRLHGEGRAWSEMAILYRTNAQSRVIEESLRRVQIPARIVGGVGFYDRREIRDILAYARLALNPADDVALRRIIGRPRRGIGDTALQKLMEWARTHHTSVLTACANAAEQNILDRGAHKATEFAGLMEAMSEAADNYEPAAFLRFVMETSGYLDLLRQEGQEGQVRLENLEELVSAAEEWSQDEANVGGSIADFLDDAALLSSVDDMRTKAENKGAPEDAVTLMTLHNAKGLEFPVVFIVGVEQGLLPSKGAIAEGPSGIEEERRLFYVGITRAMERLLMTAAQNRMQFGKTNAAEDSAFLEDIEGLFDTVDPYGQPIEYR

drUvrD FL (WT) [2] = target: T2, drUvrD FL (WT) (Deinococcus radiodurans, UniProt Q9RTI9 1-745); assay: fluorescence anisotropy; 1 mM AMPPNP; Fluorescence anisotropy: buffer A (composition not in material) + 0.05% Tween 20, 0.1 mg/mL BSA, 1 mM AMPPNP; 2.5 nM DNA, 0-8 µM protein, 80 µl, room temperature; single-site fit; conditions: protein: recombinant, tags: N-terminal His-tag cleaved with TEV (pET151d), label: fluorescein (internal dT12), 25 bp duplex, other end blunt
T2 sequence: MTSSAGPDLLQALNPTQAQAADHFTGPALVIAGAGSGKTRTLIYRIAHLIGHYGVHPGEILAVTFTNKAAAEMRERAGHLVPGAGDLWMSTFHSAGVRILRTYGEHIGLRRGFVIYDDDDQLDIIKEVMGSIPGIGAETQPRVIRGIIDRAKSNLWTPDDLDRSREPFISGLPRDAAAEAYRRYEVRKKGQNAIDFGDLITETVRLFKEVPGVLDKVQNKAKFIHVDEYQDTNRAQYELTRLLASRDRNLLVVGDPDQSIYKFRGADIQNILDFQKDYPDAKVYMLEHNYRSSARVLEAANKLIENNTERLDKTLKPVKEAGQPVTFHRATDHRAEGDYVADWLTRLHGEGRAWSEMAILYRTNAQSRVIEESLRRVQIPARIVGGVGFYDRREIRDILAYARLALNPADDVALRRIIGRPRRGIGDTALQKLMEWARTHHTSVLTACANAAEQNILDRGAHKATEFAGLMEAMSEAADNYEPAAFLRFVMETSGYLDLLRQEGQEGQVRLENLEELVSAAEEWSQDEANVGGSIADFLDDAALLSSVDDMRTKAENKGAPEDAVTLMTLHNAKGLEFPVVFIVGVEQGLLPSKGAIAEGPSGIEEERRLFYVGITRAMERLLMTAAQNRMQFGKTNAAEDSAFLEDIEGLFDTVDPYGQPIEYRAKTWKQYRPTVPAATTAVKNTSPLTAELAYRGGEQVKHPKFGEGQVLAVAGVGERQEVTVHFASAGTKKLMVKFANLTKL

drUvrD G426T = target: T3, drUvrD G426T (Deinococcus radiodurans, UniProt Q9RTI9 1-745, G426T); assay: fluorescence anisotropy; 1 mM AMPPNP; not significantly different from WT; Fluorescence anisotropy: buffer A (composition not in material) + 0.05% Tween 20, 0.1 mg/mL BSA, 1 mM AMPPNP; 2.5 nM DNA, 0-8 µM protein, 80 µl, room temperature; single-site fit; conditions: protein: recombinant, tags: N-terminal His-tag cleaved with TEV (pET151d), label: fluorescein (internal dT12), 25 bp duplex, other end blunt
T3 sequence: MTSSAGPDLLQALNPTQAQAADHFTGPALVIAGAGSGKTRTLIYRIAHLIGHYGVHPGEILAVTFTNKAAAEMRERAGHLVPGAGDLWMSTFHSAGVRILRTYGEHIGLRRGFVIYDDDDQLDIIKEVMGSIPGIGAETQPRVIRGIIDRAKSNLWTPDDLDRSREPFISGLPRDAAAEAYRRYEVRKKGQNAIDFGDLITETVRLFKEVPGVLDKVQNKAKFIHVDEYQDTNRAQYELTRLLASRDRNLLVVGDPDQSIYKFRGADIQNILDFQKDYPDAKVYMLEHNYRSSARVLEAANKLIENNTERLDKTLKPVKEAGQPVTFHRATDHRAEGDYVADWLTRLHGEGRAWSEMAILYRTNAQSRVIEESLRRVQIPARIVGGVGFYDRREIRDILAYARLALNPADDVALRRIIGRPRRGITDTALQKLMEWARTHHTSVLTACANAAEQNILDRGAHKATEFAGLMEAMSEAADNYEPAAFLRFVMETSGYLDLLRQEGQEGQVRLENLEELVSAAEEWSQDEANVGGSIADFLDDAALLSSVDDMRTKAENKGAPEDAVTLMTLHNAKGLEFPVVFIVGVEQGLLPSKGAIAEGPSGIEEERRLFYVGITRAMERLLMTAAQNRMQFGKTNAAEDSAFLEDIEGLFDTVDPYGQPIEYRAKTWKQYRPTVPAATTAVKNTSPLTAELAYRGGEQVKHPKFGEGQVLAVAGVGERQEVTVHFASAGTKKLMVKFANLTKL

drUvrD FL (WT) [3] = target: T2, drUvrD FL (WT); assay: X-ray crystallography (4.0 Å); AMPPNP, P21; Fluorescence anisotropy: buffer A (composition not in material) + 0.05% Tween 20, 0.1 mg/mL BSA, 1 mM AMPPNP; 2.5 nM DNA, 0-8 µM protein, 80 µl, room temperature; single-site fit; conditions: protein: recombinant; tags: N-terminal His-tag cleaved with TEV (pET151d); 21 bp duplex, 3' overhang 7 nt (dT7) at both ends
[4] = substrate: Nc1ncnc2c1ncn2[C@@H]1O[C@H](COP(=O)(O)OP(=O)(O)OP(=O)(O)O)[C@@H](O)[C@H]1O; assay: spectrophotometric ATPase assay; format: biochemical, Deinococcus radiodurans; conditions: ssDNA-stimulated: excess 25mer polydT (10xKssDNA), ATP 0-1 mM, 100 nM enzyme, 5 mM MgCl2, 100 mM NaCl, pH 8.0, 25°C
Excerpt: spectrophotometric ATPase assay on drUvrD^FL | determine their apparent turnover rates (Kcat) for ATP hydrolysis, along with their Km for ATP

drUvrDΔC [5] = target: T1, drUvrDΔC; assay: X-ray crystallography (2.5 Å); AMPPNP, form I, P212121; Fluorescence anisotropy: buffer A (composition not in material) + 0.05% Tween 20, 0.1 mg/mL BSA, 1 mM AMPPNP; 2.5 nM DNA, 0-8 µM protein, 80 µl, room temperature; single-site fit; conditions: protein: recombinant; tags: N-terminal His-tag cleaved with TEV (pET151d); chain copies: 2; 18 bp duplex, 3' overhang 7 nt (dT7) at both ends
[6] = substrate: Nc1ncnc2c1ncn2[C@@H]1O[C@H](COP(=O)(O)OP(=O)(O)OP(=O)(O)O)[C@@H](O)[C@H]1O; assay: spectrophotometric ATPase assay; format: biochemical, Deinococcus radiodurans; conditions: ssDNA-stimulated: excess 25mer polydT (10xKssDNA), ATP 0-1 mM, 100 nM enzyme, 5 mM MgCl2, 100 mM NaCl, pH 8.0, 25°C; remark: listed apart in the source
Excerpt: spectrophotometric ATPase assay on drUvrD^∆C | ATPase data measured on drUvrD^FL and drUvrD^∆C

[7] = 5' overhang 15 nt (dT15) on strand 2
[8] = 3' overhang 15 nt (dT15) on strand 2

B1: For25-21F/Rev25-21F (dsDNA)
DNA 1: GCAGTGCTCGCAGGTCGTTTTTTTT
DNA 2: ACGACCTGCGAGCACTGCTTTTTTT
modifications: fluorescein-dT at position 21 of both strands
binding result (drUvrDΔC [1]): binds

B2: 5'-tailed dsDNA (H1T12/H5-15) (dsDNA)
DNA 1: TCGGTACGACCTGCGAGCACTGCTT
DNA 2: TTTTTTTTTTTTTTTAAGCAGTGCTCGCAGGTCGTACCGA
modifications: fluorescein-dT at position 12 of strand 1
Kd (drUvrD FL (WT) [2]; [7]): 480 nM | binding result (drUvrD G426T; [7]): binds

B3: For28/Rev28 (dsDNA)
DNA 1: GCAGTGCTCGCAGGTCGTACCTTTTTTT
DNA 2: GGTACGACCTGCGAGCACTGCTTTTTTT
binding result (drUvrD FL (WT) [3]): binds

B4: 3'-tailed dsDNA (H1T12/H3-15) (dsDNA)
DNA 1: TCGGTACGACCTGCGAGCACTGCTT
DNA 2: AAGCAGTGCTCGCAGGTCGTACCGATTTTTTTTTTTTTTT
modifications: fluorescein-dT at position 12 of strand 1
Kd (drUvrD FL (WT) [2]; [8]): 360 nM | binding result (drUvrD G426T; [8]): binds

B5: drUvrD^FL (Deinococcus radiodurans R1 = ATCC 13939 = DSM 20539) (protein)
chain: MTSSAGPDLLQALNPTQAQAADHFTGPALVIAGAGSGKTRTLIYRIAHLIGHYGVHPGEILAVTFTNKAAAEMRERAGHLVPGAGDLWMSTFHSAGVRILRTYGEHIGLRRGFVIYDDDDQLDIIKEVMGSIPGIGAETQPRVIRGIIDRAKSNLWTPDDLDRSREPFISGLPRDAAAEAYRRYEVRKKGQNAIDFGDLITETVRLFKEVPGVLDKVQNKAKFIHVDEYQDTNRAQYELTRLLASRDRNLLVVGDPDQSIYKFRGADIQNILDFQKDYPDAKVYMLEHNYRSSARVLEAANKLIENNTERLDKTLKPVKEAGQPVTFHRATDHRAEGDYVADWLTRLHGEGRAWSEMAILYRTNAQSRVIEESLRRVQIPARIVGGVGFYDRREIRDILAYARLALNPADDVALRRIIGRPRRGIGDTALQKLMEWARTHHTSVLTACANAAEQNILDRGAHKATEFAGLMEAMSEAADNYEPAAFLRFVMETSGYLDLLRQEGQEGQVRLENLEELVSAAEEWSQDEANVGGSIADFLDDAALLSSVDDMRTKAENKGAPEDAVTLMTLHNAKGLEFPVVFIVGVEQGLLPSKGAIAEGPSGIEEERRLFYVGITRAMERLLMTAAQNRMQFGKTNAAEDSAFLEDIEGLFDTVDPYGQPIEYRAKTWKQYRPTVPAATTAVKNTSPLTAELAYRGGEQVKHPKFGEGQVLAVAGVGERQEVTVHFASAGTKKLMVKFANLTKL
notes: full-length (residues to 745), pET151d, E. coli BL21 (DE3), N-terminal His-tag cut with TEV protease; crystallized as a monomer, two per DNA duplex
Km [4]: 62.1 ± 6.6 µM | kcat [4]: 149.3 ± 3.5 s⁻¹

B6: For25/Rev25 (dsDNA)
DNA 1: GCAGTGCTCGCAGGTCGTTTTTTTT
DNA 2: ACGACCTGCGAGCACTGCTTTTTTT
binding result (drUvrDΔC [5]): binds

B7: drUvrD^∆C (Deinococcus radiodurans R1 = ATCC 13939 = DSM 20539) (protein)
chain: MTSSAGPDLLQALNPTQAQAADHFTGPALVIAGAGSGKTRTLIYRIAHLIGHYGVHPGEILAVTFTNKAAAEMRERAGHLVPGAGDLWMSTFHSAGVRILRTYGEHIGLRRGFVIYDDDDQLDIIKEVMGSIPGIGAETQPRVIRGIIDRAKSNLWTPDDLDRSREPFISGLPRDAAAEAYRRYEVRKKGQNAIDFGDLITETVRLFKEVPGVLDKVQNKAKFIHVDEYQDTNRAQYELTRLLASRDRNLLVVGDPDQSIYKFRGADIQNILDFQKDYPDAKVYMLEHNYRSSARVLEAANKLIENNTERLDKTLKPVKEAGQPVTFHRATDHRAEGDYVADWLTRLHGEGRAWSEMAILYRTNAQSRVIEESLRRVQIPARIVGGVGFYDRREIRDILAYARLALNPADDVALRRIIGRPRRGIGDTALQKLMEWARTHHTSVLTACANAAEQNILDRGAHKATEFAGLMEAMSEAADNYEPAAFLRFVMETSGYLDLLRQEGQEGQVRLENLEELVSAAEEWSQDEANVGGSIADFLDDAALLSSVDDMRTKAENKGAPEDAVTLMTLHNAKGLEFPVVFIVGVEQGLLPSKGAIAEGPSGIEEERRLFYVGITRAMERLLMTAAQNRMQFGKTNAAEDSAFLEDIEGLFDTVDPYGQPIEYR
notes: C-terminally truncated, missing residues 666-745; pET151d, E. coli BL21 (DE3), N-terminal His-tag cut with TEV protease; crystallized as a monomer, two per DNA duplex
Km [6]: 77.0 ± 16.9 µM | kcat [6]: 213.2 ± 11.7 s⁻¹
